Assay results published in paper PMC3068226 (Biochemistry, 2011).

Tests used:
BSA [1] = target: T1, BSA (Bos taurus, UniProt P02769)
[2] = format: in vivo, mouse; details: for change in kurtosis over time after injection: mouse ear, LS224 over 6 h, LS296 within 3 h
BSA [3] = target: T1, BSA; test: Binding to BSA by fluorescence quenching of albumin tryptophan; details: double logarithmic plot (Eq. 6), less than 1 mol/mol dye to albumin

T1 sequence (P02769 25-607): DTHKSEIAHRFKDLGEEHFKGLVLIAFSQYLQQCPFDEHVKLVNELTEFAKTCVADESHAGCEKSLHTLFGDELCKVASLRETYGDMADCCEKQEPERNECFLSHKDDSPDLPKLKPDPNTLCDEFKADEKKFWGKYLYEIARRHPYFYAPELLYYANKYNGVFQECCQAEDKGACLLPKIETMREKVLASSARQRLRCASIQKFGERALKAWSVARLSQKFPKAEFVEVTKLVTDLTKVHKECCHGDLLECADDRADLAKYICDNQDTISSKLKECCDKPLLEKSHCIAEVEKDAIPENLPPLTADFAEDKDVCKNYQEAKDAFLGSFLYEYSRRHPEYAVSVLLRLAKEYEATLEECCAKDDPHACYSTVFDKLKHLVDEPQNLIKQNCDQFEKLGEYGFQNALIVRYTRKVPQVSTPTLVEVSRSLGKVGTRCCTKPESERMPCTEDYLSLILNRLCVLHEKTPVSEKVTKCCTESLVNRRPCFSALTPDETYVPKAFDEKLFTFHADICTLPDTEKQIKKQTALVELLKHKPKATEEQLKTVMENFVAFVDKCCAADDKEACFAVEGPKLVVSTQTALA

Row | Compound | K, M^−1 (binding constants to BSA in PBS buffer) (BSA [1]) | change in kurtosis over time after injection ([2]; ex/em 780/800 nm) | also measured
1 | Cypate-Gly-Arg-Asp-Ser-Pro-Lys-OH [LS39] | 76,000 M^−1 |  | 
2 | LS276-DPhe-Cyclo(Cys-Tyr-DTrp-Lys-Thr- Cys)-Thr-OH (disulfide) [LS296] | 14,880 M^−1 | dramatic changes | 
3 | CC1(C)C(/C=C/C=C/C=C/C=C2\N(CCCCS(=O)(=O)O)c3ccc4ccccc4c3C2(C)C)=[N+](CCCCS(=O)(=O)[O-])c2ccc3ccccc3c21 [ICG, indocyanine green] |  |  | number of binding sites n on albumin (BSA [3]): 1.012 ± 0.0212
4 | CC1(C)C(=CC=C2CCCC(C=CC3=[N+](CCCCCC(=O)[O-])c4ccc(S(=O)(=O)[O-])cc4C3(C)C)=C2Oc2ccc(S(=O)(=O)[O-])cc2)N(CCCCS(=O)(=O)[O-])c2ccc(S(=O)(=O)[O-])cc21.[Na+].[Na+].[Na+].[Na+] [IRdye800CW, reference compound] |  |  | initial kurtosis value at the first time point ([2]; mouse ear ROI, 2 min after injection): less than 1; time of peak fluorescence intensity in ROI after injection ([2]; mouse ear ROI, intravenous injection, ex/em 780/800 nm): 20 to 30 min; binding constant K to BSA (BSA [1]): ~6,100 M^−1
5 | Cypate-DPhe-Cyclo(Cys-Tyr-DTrp-Lys-Thr-Cys)-Thr-OH (disulfide) [LS224] | 51,000 M^−1 | no changes in kurtosis | 
